system: Escherichia coli TOP10; test: shrunken log2 fold change of peptide-encoding DNA abundance (4.5 h post-induction vs induction); higher = less antimicrobial activity (less host growth inhibition); conditions: time post-induction: 4.5 h; library: site-saturation at positions 5, 18, 19, 20
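Also: peptides expressed intracellularly from a pBAD plasmid library in pooled LB shake-flask culture, induced with 0.3% L-arabinose, DNA abundance read by NGS, three biological replicates, DESeq2 with apeglm shrinkage.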

| Sequence | shrunken log2 fold change |
| --- | --- |
| RRIRNRPPRLPRPRPRPTCKPRP | -0.0431 |
| RRIRVRPPRLPRPRPRPFWKPRP | 0.0154 |
| RRIRLRPPRLPRPRPRPHQIPRP | -0.249 |
| RRIRLRPPRLPRPRPRPGCHPRP | -0.268 |
| RRIRDRPPRLPRPRPRPQDMPRP | -0.628 |
| RRIRPRPPRLPRPRPRPDKIPRP | -0.184 |
| RRIRLRPPRLPRPRPRPFTSPRP | -0.153 |
| RRIRGRPPRLPRPRPRPHNFPRP | 0.0511 |
| RRIRCRPPRLPRPRPRPAVVPRP | -0.243 |
| RRIRNRPPRLPRPRPRPPPRPRP | 1.47 |
| RRIRHRPPRLPRPRPRPKMMPRP | 0.00455 |
| RRIRRRPPRLPRPRPRPHITPRP | -0.385 |
| RRIRHRPPRLPRPRPRPREWPRP | 0.0987 |
| RRIRQRPPRLPRPRPRPSCEPRP | 0.0555 |
| RRIRGRPPRLPRPRPRPCNSPRP | -0.0377 |
| RRIRKRPPRLPRPRPRPETSPRP | 1.02 |
| RRIRPRPPRLPRPRPRPPCYPRP | 0.0837 |
| RRIRTRPPRLPRPRPRPIWMPRP | -0.101 |
| RRIRPRPPRLPRPRPRPYPQPRP | -0.252 |
| RRIRARPPRLPRPRPRPICAPRP | 0.799 |

| Sequence | shrunken log2 fold change |
| --- | --- |
| RRIRGRPPRLPRPRPRPTLQPRP | 0.779 |
| RRIRFRPPRLPRPRPRPDFEPRP | 0.0453 |
| RRIRPRPPRLPRPRPRPSRHPRP | -0.0917 |
| RRIRPRPPRLPRPRPRPGYNPRP | -0.552 |
| RRIRKRPPRLPRPRPRPHLCPRP | 0.0127 |
| RRIRWRPPRLPRPRPRPIVQPRP | 0.0969 |
| RRIRYRPPRLPRPRPRPRELPRP | -0.0942 |
| RRIRKRPPRLPRPRPRPVDGPRP | 0.344 |
| RRIRKRPPRLPRPRPRPLNYPRP | -0.217 |
| RRIRIRPPRLPRPRPRPKKNPRP | -0.249 |
| RRIRKRPPRLPRPRPRPSEVPRP | -0.524 |
| RRIRPRPPRLPRPRPRPRENPRP | 0.672 |
| RRIRVRPPRLPRPRPRPEPAPRP | 0.44 |
| RRIRKRPPRLPRPRPRPKKRPRP | 1.09 |
| RRIRARPPRLPRPRPRPRECPRP | 0.804 |
| RRIRVRPPRLPRPRPRPHFYPRP | -0.173 |
| RRIRDRPPRLPRPRPRPAMPPRP | -0.107 |
| RRIRRRPPRLPRPRPRPQWIPRP | 0.064 |
| RRIRRRPPRLPRPRPRPINPPRP | 0.00585 |
| RRIRERPPRLPRPRPRPNKCPRP | -0.522 |

| Sequence | shrunken log2 fold change |
| --- | --- |
| RRIRFRPPRLPRPRPRPWSDPRP | -0.159 |
| RRIRMRPPRLPRPRPRPVWHPRP | 0.137 |
| RRIRRRPPRLPRPRPRPWGGPRP | 0.53 |
| RRIRRRPPRLPRPRPRPTKSPRP | 0.226 |
| RRIRGRPPRLPRPRPRPLISPRP | 0.364 |
| RRIRGRPPRLPRPRPRPSRAPRP | 0.553 |
| RRIRHRPPRLPRPRPRPRWNPRP | -0.065 |
| RRIRQRPPRLPRPRPRPIICPRP | 0.0208 |
| RRIRFRPPRLPRPRPRPYCRPRP | -0.256 |
| RRIRLRPPRLPRPRPRPCREPRP | 0.251 |
| RRIRERPPRLPRPRPRPYMVPRP | -0.832 |
| RRIRYRPPRLPRPRPRPRTSPRP | -0.169 |
| RRIRQRPPRLPRPRPRPVIMPRP | -0.348 |
| RRIRKRPPRLPRPRPRPHGEPRP | 0.428 |
| RRIRGRPPRLPRPRPRPIFHPRP | 0.249 |
| RRIRHRPPRLPRPRPRPAIPPRP | -0.112 |
| RRIRQRPPRLPRPRPRPCQKPRP | 0.0369 |
| RRIRHRPPRLPRPRPRPMSLPRP | -0.00613 |
| RRIRDRPPRLPRPRPRPVYTPRP | -0.0405 |
| RRIRERPPRLPRPRPRPQNAPRP | 0.0619 |

Reference: the supplement of paper PMC9112550, “Optimization of the antimicrobial peptide Bac7 by deep mutational scanning” (BMC Biology, 2022)
